Experimental data taken from the supplement of paper PMC7877785.
± gives the uncertainty stated by the source.

Experiment: self-splicing fitness, log relative to wild type (ln ratio); higher = more splicing; Tetrahymena group I intron in knt gene, E. coli kanamycin selection, DiMSum; sequences stand for … in CUCUCU…GGAGGGAAAAGUUAUCAGGCAUGCACCUGGUAGCUAGUCUUUAAACCAAUAGAUUGCAUCGGUUUAAAAGGCAAGACCGUCAAAUUGCGGGAAAGGGGUCAACAGCCGUUCAGUACCAAGUCUCAGGGGAAACUUUGAGAUGGCCUUGCAAAGGGUAUGGUAAUAAGCUGACGGACAUGGUCCUAACCACGCAGCCAAGUCCUAAGUCAACAGAUCUUCUGUUGAUAUGGAUGCAGUUCACAGACUAAAUGUCGGUCGGGGAAGAUGUAUUCUUCUCAUAAGAUAUAGUCGGACCUCUCCUUAAUGGGAGCUAGCGGAUGAAGUGAUGCAACACUGGAGCCGCUGGGAACUAAUUUGUAUGCGAAAGUAUAUUGAUUAGUUUUGGAGUACUCGUGGUCG
Summary of the method: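 Library with all eight P1ex-region intron nucleotides randomised, intron inside the knt kanamycin-resistance gene on pET-22b(+), in E. coli BL21(DE3). Cells grew overnight at 37°C or 30°C on LB agar with or without 25 μg/mL kanamycin (plus 100 μg/mL carbenicillin, 50 μM IPTG, 0.2% rhamnose), in six replicate transformations. Pooled colonies were amplicon-sequenced on Illumina HiSeq 2500. DiMSum fitness is the error-weighted combination of wild-type-normalised replicate fold changes, kanamycin versus none.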

Sequence | self-splicing fitness (ln) (30 °C) | self-splicing fitness (ln) (37 °C)
UCUGAGCAAUAUUACGGAAG | -4.27 ± 0.2 | -3.07 ± 0.23
GCGUAGCAAUAUUACGAGCA | -1.28 ± 0.082 | -0.574 ± 0.094
UUGAAGCAAUAUUACGCGGA | -1.12 ± 0.12 | -0.506 ± 0.14
GACAAGCAAUAUUACGGAGA | -2.59 ± 0.18 | -1.98 ± 0.14
CCGCAGCAAUAUUACGCGGU | -3.18 ± 0.16 | -2.5 ± 0.22
GCAAAGCAAUAUUACGCGAA | -1.55 ± 0.14 | -0.599 ± 0.17
GCUCAGCAAUAUUACGUAGU | -0.46 ± 0.059 | -0.522 ± 0.075
UUGGAGCAAUAUUACGUUGC |  | -1.44 ± 0.45
UGGGAGCAAUAUUACGCAAG | -2.15 ± 0.36 | 
CCGGAGCAAUAUUACGGAAA | -1.87 ± 0.18 | -2.41 ± 0.3
AGUUAGCAAUAUUACGGCCA | -0.965 ± 0.16 | 0.403 ± 0.29
GAAUAGCAAUAUUACGACCA | -0.287 ± 0.13 | -0.616 ± 0.13
UACAAGCAAUAUUACGGCUA | -0.336 ± 0.06 | 0.201 ± 0.088
AAAAAGCAAUAUUACGGCGG | -1.18 ± 0.059 | -0.131 ± 0.077
UAAAAGCAAUAUUACGUGAA | -1.36 ± 0.082 | -1.06 ± 0.1
AUGAAGCAAUAUUACGUUGU | -1.99 ± 0.12 | -0.91 ± 0.12
CGUGAGCAAUAUUACGGCGA | -2.31 ± 0.36 | -0.845 ± 0.34
GCUAAGCAAUAUUACGUUUC | -3 ± 0.16 | -0.945 ± 0.12
GAGUAGCAAUAUUACGCUCG | -1.88 ± 0.28 | -0.561 ± 0.29
GCACAGCAAUAUUACGCUCC | -1.27 ± 0.16 | 0.155 ± 0.17
CGAUAGCAAUAUUACGAGAU | -4.01 ± 0.39 | -2.73 ± 0.25
GGACAGCAAUAUUACGUCUA | -0.35 ± 0.081 | -0.114 ± 0.097
UCUUAGCAAUAUUACGACUC |  | -1.03 ± 0.5
CCGUAGCAAUAUUACGGGCC | -3.55 ± 0.25 | -2.83 ± 0.32
CUCUAGCAAUAUUACGAUUU | -3.27 ± 0.19 | -3.01 ± 0.3

Sequence | self-splicing fitness (ln) (30 °C) | self-splicing fitness (ln) (37 °C)
AUCCAGCAAUAUUACGUGCU | -2.83 ± 0.17 | -2.88 ± 0.31
ACCCAGCAAUAUUACGGUGA | -0.516 ± 0.043 | 0.305 ± 0.059
CCCUAGCAAUAUUACGAGGG | -4.35 ± 0.46 | -2.09 ± 0.23
GUGCAGCAAUAUUACGUCAA | -1.6 ± 0.15 | -0.634 ± 0.12
UACUAGCAAUAUUACGGGUU | -2.34 ± 0.18 | -1.78 ± 0.16
UUCUAGCAAUAUUACGACGU | -1.89 ± 0.12 | -1.12 ± 0.1
AGCGAGCAAUAUUACGUCAG | -4.3 ± 0.36 | -2.58 ± 0.29
AGGAAGCAAUAUUACGCAGG | -3.16 ± 0.25 | -2.21 ± 0.3
GCGUAGCAAUAUUACGUUGG | -2.62 ± 0.24 | -2.96 ± 0.32
CACCAGCAAUAUUACGCUCG | -0.247 ± 0.062 | 0.219 ± 0.087
UUCUAGCAAUAUUACGAGCA | -0.992 ± 0.089 | -0.124 ± 0.085
ACUAAGCAAUAUUACGACCU | -0.123 ± 0.081 | 0.342 ± 0.1
CAGCAGCAAUAUUACGAGCG | -0.131 ± 0.053 | -0.0622 ± 0.066
AUCCAGCAAUAUUACGGAGA | -2.43 ± 0.14 | -0.986 ± 0.12
AAGCAGCAAUAUUACGCCAC | -2.93 ± 0.22 | -2.72 ± 0.29
CCAGAGCAAUAUUACGUCGC | -3.95 ± 0.32 | -2.49 ± 0.29
UGUUAGCAAUAUUACGACAU | -2.59 ± 0.021 | -1.28 ± 0.035
AUCAAGCAAUAUUACGGUCU | -1.54 ± 0.11 | -0.196 ± 0.095
ACCAAGCAAUAUUACGAAGC | -3.94 ± 0.23 | -0.918 ± 0.15
UCUUAGCAAUAUUACGUUCU |  | -2.75 ± 0.21
CAAUAGCAAUAUUACGUGAG | -0.424 ± 0.076 | 0.678 ± 0.11
CACGAGCAAUAUUACGUGGU | -3.86 ± 0.24 | -2.25 ± 0.18
UCGUAGCAAUAUUACGUGAA | -2.73 ± 0.16 | -1.8 ± 0.17
AUAGAGCAAUAUUACGCAGG | -3.06 ± 0.2 | -1.86 ± 0.23
